The test concerns the target Human Akt kinase (Upstate #14-276) (human), P31749. Put plainly: cell-based or functional assay.

Square brackets hold non-standard residues; d marks the D form. Primed or numbered codes have the meaning given here. * marks the point of attachment. 10Ca = carbamate linkage conjugating the peptide-PEG to paclitaxel at C10; PEG(13) = PEG13 linker; Piv = CC(C)(C)C(=O)*; PXL = paclitaxel

Chain of Human Akt kinase (Upstate #14-276) (human), P31749 (P31749 whole entry): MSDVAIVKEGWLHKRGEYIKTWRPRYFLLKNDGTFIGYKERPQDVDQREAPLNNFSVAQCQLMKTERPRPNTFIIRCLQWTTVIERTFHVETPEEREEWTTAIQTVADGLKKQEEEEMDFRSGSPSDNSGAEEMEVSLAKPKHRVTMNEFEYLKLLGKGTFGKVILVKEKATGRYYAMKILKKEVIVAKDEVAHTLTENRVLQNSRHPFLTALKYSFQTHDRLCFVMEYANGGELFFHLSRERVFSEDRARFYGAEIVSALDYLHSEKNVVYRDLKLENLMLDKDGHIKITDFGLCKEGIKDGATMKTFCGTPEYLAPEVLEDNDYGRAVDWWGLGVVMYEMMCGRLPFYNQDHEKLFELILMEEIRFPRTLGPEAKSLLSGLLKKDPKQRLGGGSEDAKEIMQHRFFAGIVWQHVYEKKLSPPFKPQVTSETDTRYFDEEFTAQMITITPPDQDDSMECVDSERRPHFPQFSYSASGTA

For Piv-GRPRTS[dS]FAEG-{PEG(13)-10Ca-PXL} [Pv-GRPRTSsFAEG-PEG(13)-10Ca-PXL], the Ave. Akt Kinase Act. (% of parent peptide activity) came to 0.

Values taken from US20050187147A1.
